Results on 9 molecules are retold here after PMC5773378 (Immunity, 2017).

The chains are these.
T1: human IL-23 receptor ectodomain (IL-23R, full ECD, residues 1-317) (human, UniProt Q5VWK5-1 24-317)
T1 sequence (looked up): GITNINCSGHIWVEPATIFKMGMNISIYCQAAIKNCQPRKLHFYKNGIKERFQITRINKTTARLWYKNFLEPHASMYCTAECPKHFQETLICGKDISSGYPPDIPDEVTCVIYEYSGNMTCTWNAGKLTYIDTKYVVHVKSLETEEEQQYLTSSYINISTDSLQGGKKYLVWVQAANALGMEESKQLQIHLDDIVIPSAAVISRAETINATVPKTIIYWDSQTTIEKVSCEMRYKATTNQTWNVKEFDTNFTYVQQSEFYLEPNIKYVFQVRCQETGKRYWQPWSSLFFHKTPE

B1: Fab fragment of ustekinumab (Fab, V domains shown)
VH: EVQLVQSGAEVKKPGESLKISCKGSGYSFTTYWLGWVRQMPGKGLDWIGIMSPVDSDIRYSPSFQGQVTMSVDKSITTAYLQWNSLKASDTAMYYCARRRPGQGYFDFWGQGTLVTVSS
VL: DIQMTQSPSSLSASVGDRVTITCRASQGISSWLAWYQQKPEKAPKSLIYAASSLQSGVPSRFSGSGSGTDFTLTISSLQPEDFATYYCQQYNIYPYTFGQGTKLEIK
B2: Nanobody 22E11 (single domain VHH camelid antibody against human IL-23) (VHH)
VHH: EVQLVESGGGLVQAGGSLRLSCAASGRTFSWSAVGWFRQAPGKEREFVAAIRWSGGSPYYADSVKDRFTISRDNAKNTVYLQMNSLRPEDTAVYLCGETSLFPTSRGSHYDTWGQGTQVTVSS
B3: Nanobody 37D5 (single domain VHH camelid antibody against human IL-23) (VHH)
VHH: EVQLVESGGGLVQPGGSLRLSCAASGFTLDYLAIGWFRQAPGKEREGVSCVSSSGQYTYYADSVKGRFTISRDNAESTVYLQMNSLKPEDTAVYYCATDPECYRVRGYYNGEYDYWGQGTQVTVSS
B4: Fab fragment of briakinumab (ABT-874) (Fab, V domains shown)
VH: QVQLVESGGGVVQPGRSLRLSCAASGFTFSSYGMHWVRQAPGKGLEWVAFIRYDGSNKYYADSVKGRFTISRDNSKNTLYLQMNSLRAEDTAVYYCKTHGSHDNWGQGTMVTVSS
VL: QSVLTQPPSVSGAPGQRVTISCSGSRSNIGSNTVKWYQQLPGTAPKLLIYYNDQRPSGVPDRFSGSKSGTSASLAITGLQAEDEADYYCQSYDRYTHPALLFGTGTKVTVL
B5: human interleukin-23 (IL-23), heterodimer of IL-23p19 and IL-12p40 (complex)
chain 1: RAVPGGSSPAWTQCQQLSQKLCTLAWSAHPLVGHMDLREEGDEETTNDVPHIQCGDGCDPQGLRDNSQFCLQRIHQGLIFYEKLLGSDIFTGEPSLLPDSPVGQLHASLLGLSQLLQPEGHHWETQQIPSLSPSQPWQRLLLRFKILRSLQAFVAVAARVFAHGAATLSP
chain 2: IWELKKDVYVVELDWYPDAPGEMVVLTCDTPEEDGITWTLDQSSEVLGSGKTLTIQVKEFGDAGQYTCHKGGEVLSHSLLLLHKKEDGIWSTDILKDQKEPKNKTFLRCEAKNYSGRFTCWWLTTISTDLTFSVKSSRGSSDPQGVTCGAATLSAERVRGDNKEYEYSVECQEDSACPAAEESLPIEVMVDAVHKLKYENYTSSFFIRDIIKPDPPKNLQLKPLKNSRQVEVSWEYPDTWSTPHSYFSLTFCVQVQGKSKREKKDRVFTDKTSATVICRKNASISVRAQDRYYSSSWSEWASVPCS
B6: human IL-23p19, the helical subunit of IL-23 (natural protein, UniProt Q9NPF7 20-189, looked up)
chain: B5 chain 1
B7: preformed human IL-23:IL-23R binary complex (complex)
chain 1: B5 chain 1
chain 2: B5 chain 2
chain 3: T1 sequence (looked up)
B8: human IL-12p40, the p40 subunit of IL-23 (natural protein, UniProt P29460 23-328, looked up)
chain: B5 chain 2
B9: Nanobody 124C4 (single domain VHH camelid antibody against human IL-23) (VHH)
VHH: EVQLVESGGGLVQPGGSLRLSCAASGFTLDDYAIAWFRQAPGKEREGVSGIDSGDGSAYYADSVKGRFTISSDNAKNTVYLQMNSLRPEDTAVYYCARVRTGWGLNAPDYAMDYWGKGTLVTVSS

Read-outs that look alike come from different tables or passages of the source.

Assay [1] deals with T2, human interleukin-23 (IL-23), heterodimer of IL-23p19 and IL-12p40 (human, UniProt Q9NPF7;P29460). As to the kind of experiment: cross-linking.
In assay [2] the target is T2, human interleukin-23 (IL-23), …. As to the kind of experiment: crystal structure.
Assay [3] has as its target T3, human IL-12p40, the p40 subunit of IL-23 (human, UniProt P29460). The assay can be described thus: crystal structure.
Assay [4] concerns the target T2, human interleukin-23 (IL-23), …. The assay can be described thus: crystal structure. This is another data set of the same source.
The target of assay [5] is T3, human IL-12p40, the p40 subunit of IL-23. As to the kind of experiment: crystal structure. The source holds these as a separate data set.
Assay [6] has as its target T1, human IL-23 receptor ectodomain …. As to the kind of experiment: SEC-MALLS.
Assay [7] has as its target T4, human IL-12 receptor subunit beta-1 ectodomain (IL-12Rβ1, full ECD) (human, UniProt P42701-1 24-544). The assay can be described thus: ITC.
The target of assay [8] is T1, human IL-23 receptor ectodomain …. As to the kind of experiment: crystal structure.
Assay [9] concerns the target B8. The assay can be described thus: crystal structure.
Assay [10] has as its target T4, human IL-12 receptor subunit beta-1 …. As to the kind of experiment: cross-linking.

Turning to B1, the binding result in assay [1] is recorded as “binds”. For B2, the binding result in assay [2] and in assay [3] was “binds” in each case. On to B3, for which the binding result in assay [1] is recorded as “binds”. Regarding B4, the binding result in assay [4] and in [5] was “binds” throughout. For B5, in [6], the “stoichiometry N” value worked out at 1. The molecule also gave a dissociation constant Kd in assay [7] of 2000 nM. Take B6: the binding result in assay [8] and in [9] was “binds” each time. The molecule B7 came in with an equilibrium dissociation constant (Kd) in assay [7] of 25 nM. Consider B8, for which the binding result in [10] is listed as “binds”. On to B9, for which the binding result in assay [1] was “binds”.
